Measured values taken from patent publication US20110046068A1 (MEDICAL RESEARCH COUNCIL, published 2011).
Non-standard residues stand in square brackets, D forms with d. No end group written: not given here.

Experiments:
human gpr-54 receptor [1] = molecular target: T1, human gpr-54 receptor (human, UniProt Q969F8 1-398); experiment: cell-based or functional assay
human gpr-54 receptor [2] = molecular target: T1, human gpr-54 receptor; experiment: cell-based or functional assay; remark: listed apart in the source
human gpr-54 receptor [3] = molecular target: T1, human gpr-54 receptor; experiment: whole-cell competition binding against 125I-kisspeptin, CHO cells stably transfected with GPR54 (CPM) [208]
Description: (§1) Cell monolayers were placed on ice and exposed to 0.5 mls peptide (10 pM-1 uM); the cells were then incubated at 4° C. for 4 hr. After 4 hrs, cells were washed twice with ice cold Dulbecco's phosphate buffered saline (DPBS; with Calcium and Magnesium) and then 0.5 mls 0.1M Sodium Hydroxide (NaOH) were added to cells for 20 minutes, shaking to lyse cells. Lysates were transferred to plastic tubes and bound radioactivity counted on the gamma counter for 60 seconds.

human gpr-54 receptor [4] = molecular target: T1, human gpr-54 receptor; experiment: cell-based or functional assay; remark: listed apart in the source
human gpr-54 receptor [5] = molecular target: T1, human gpr-54 receptor; experiment: whole-cell competition binding against 125I-kisspeptin, CHO cells stably transfected with GPR54 (CPM); the fall of the curve lies between Total and -10 LogM [228]
Description: as §1

human gpr-54 receptor [6] = molecular target: T1, human gpr-54 receptor; experiment: cell-based or functional assay; remark: listed apart in the source
human gpr-54 receptor [7] = molecular target: T1, human gpr-54 receptor; experiment: whole-cell competition binding against 125I-kisspeptin, CHO cells stably transfected with GPR54 (CPM); the fall of the curve lies between Total and -10 LogM [231]
Description: as §1

human gpr-54 receptor [8] = molecular target: T1, human gpr-54 receptor; experiment: cell-based or functional assay; remark: listed apart in the source
human gpr-54 receptor [9] = molecular target: T1, human gpr-54 receptor; experiment: whole-cell competition binding against 125I-kisspeptin, CHO cells stably transfected with GPR54 (CPM); upper curve, no lower plateau reached at -5 LogM [212]
Description: as §1

human gpr-54 receptor [10] = molecular target: T1, human gpr-54 receptor; experiment: cell-based or functional assay; remark: listed apart in the source
human gpr-54 receptor [11] = molecular target: T1, human gpr-54 receptor; experiment: whole-cell competition binding against 125I-kisspeptin, CHO cells stably transfected with GPR54 (CPM) [210]
Description: as §1

human gpr-54 receptor [12] = molecular target: T1, human gpr-54 receptor; experiment: cell-based or functional assay; remark: listed apart in the source
human gpr-54 receptor [13] = molecular target: T1, human gpr-54 receptor; experiment: whole-cell competition binding against 125I-kisspeptin, CHO cells stably transfected with GPR54 (CPM) [229]
Description: as §1

human gpr-54 receptor [14] = molecular target: T1, human gpr-54 receptor; experiment: cell-based or functional assay; remark: listed apart in the source
human gpr-54 receptor [15] = molecular target: T1, human gpr-54 receptor; experiment: whole-cell competition binding against 125I-kisspeptin, CHO cells stably transfected with GPR54 (CPM); the fall of the curve lies between Total and -11 LogM [202]
Description: as §1

human gpr-54 receptor [16] = molecular target: T1, human gpr-54 receptor; experiment: cell-based or functional assay; remark: listed apart in the source
human gpr-54 receptor [17] = molecular target: T1, human gpr-54 receptor; experiment: whole-cell competition binding against 125I-kisspeptin, CHO cells stably transfected with GPR54 (CPM); the fall of the curve lies between Total and -11 LogM [206]
Description: as §1

human gpr-54 receptor [18] = molecular target: T1, human gpr-54 receptor; experiment: whole-cell competition binding against 125I-kisspeptin, CHO cells stably transfected with GPR54 (CPM); the fall of the curve lies between Total and -11 LogM [203]
Description: as §1

human gpr-54 receptor [19] = molecular target: T1, human gpr-54 receptor; experiment: whole-cell competition binding against 125I-kisspeptin, CHO cells stably transfected with GPR54 (CPM); the drawn curve falls between Total and -10 LogM, which does not fit the printed number [207]
human gpr-54 receptor [20] = molecular target: T1, human gpr-54 receptor; experiment: cell-based or functional assay; remark: listed apart in the source
human gpr-54 receptor [21] = molecular target: T1, human gpr-54 receptor; experiment: whole-cell competition binding against 125I-kisspeptin, CHO cells stably transfected with hGPR54 (CPM); no lower plateau reached at -5 LogM [186]
Description: as §1

human gpr-54 receptor [22] = molecular target: T1, human gpr-54 receptor; experiment: whole-cell competition binding against 125I-kisspeptin, CHO cells stably transfected with GPR54 (CPM); the curve falls between Total and -9 LogM [209]
Description: as §1

human gpr-54 receptor [23] = molecular target: T1, human gpr-54 receptor; experiment: whole-cell competition binding against 125I-kisspeptin, CHO cells stably transfected with human GPR54 (CPM); no lower plateau reached at -5 LogM [211]
Description: as §1

T1 sequence (Q969F8 whole entry): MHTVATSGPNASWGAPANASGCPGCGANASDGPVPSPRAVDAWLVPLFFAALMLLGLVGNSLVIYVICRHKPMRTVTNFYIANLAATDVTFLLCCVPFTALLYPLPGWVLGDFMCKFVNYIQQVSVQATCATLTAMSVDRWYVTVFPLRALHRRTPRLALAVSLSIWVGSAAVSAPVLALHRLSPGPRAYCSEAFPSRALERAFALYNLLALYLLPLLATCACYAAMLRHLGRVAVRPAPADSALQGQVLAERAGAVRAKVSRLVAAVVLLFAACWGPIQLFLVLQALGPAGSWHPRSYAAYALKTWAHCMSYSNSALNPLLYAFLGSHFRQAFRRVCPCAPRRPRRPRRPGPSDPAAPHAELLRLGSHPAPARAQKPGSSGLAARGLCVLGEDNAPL

Row | Binder | IP stimulation (IC50), peptide alone (human gpr-54 receptor [1]) [nM] | Inhibition of IP stimulation by 10nM Agonist: % Inhibition of Max (human gpr-54 receptor [1]) [%] | Inhibition of IP stimulation by 10nM Agonist: IC50 (human gpr-54 receptor [1]) [nM] | further results
1 | YNWNGFGLRF-NH2 (kisspeptin-10 analogue) [208] | 45.6 | 55 | 1000 | Antagonistic assay with kisspeptin-10: IC50 [208] (human gpr-54 receptor [2]): 1000 nM; IC50 (human gpr-54 receptor [3]): 70.3 nM
2 | Ac-YNWNGFG[dW]RF-NH2 (SMILES CC(=O)N[C@@H](Cc1ccc(O)cc1)C(=O)N[C@@H](CC(N)=O)C(=O)N[C@@H](Cc1c[nH]c2ccccc12)C(=O)N[C@@H](CC(N)=O)C(=O)NCC(=O)N[C@@H](Cc1ccccc1)C(=O)NCC(=O)N[C@H](Cc1c[nH]c2ccccc12)C(=O)N[C@@H](CCCNC(=N)N)C(=O)N[C@@H](Cc1ccccc1)C(N)=O, kisspeptin-10 analogue; also called acYNWNGFG[(D)-W]RF) [228] | – | 58 | 50 | IP competition with 10nM kisspeptin-10: IC50 [228] (human gpr-54 receptor [4]): 50 nM; IC50 (human gpr-54 receptor [5]): 0.00655 nM
3 | YNWNGFG[dW]RF-NH2 (kisspeptin-10 analogue; also called compound 210) [210] | – | 64 | < 0.1 | IP competition with 10nM kisspeptin-10: IC50 [210] (human gpr-54 receptor [10]): < 0.1 nM; IC50 (human gpr-54 receptor [11]): 1300 nM
4 | Ac-YNWN[dW]FG[dW]RF-NH2 (SMILES CC(=O)N[C@@H](Cc1ccc(O)cc1)C(=O)N[C@@H](CC(N)=O)C(=O)N[C@@H](Cc1c[nH]c2ccccc12)C(=O)N[C@@H](CC(N)=O)C(=O)N[C@H](Cc1c[nH]c2ccccc12)C(=O)N[C@@H](Cc1ccccc1)C(=O)NCC(=O)N[C@H](Cc1c[nH]c2ccccc12)C(=O)N[C@@H](CCCNC(=N)N)C(=O)N[C@@H](Cc1ccccc1)C(N)=O, kisspeptin-10 analogue; also called acYNWN[(D)-W]FG[(D)-W]RF) [229] | – | 68 | 8000 | IP competition with 10nM kisspeptin-10: IC50 [229] (human gpr-54 receptor [12]): 8000 nM; IC50 (human gpr-54 receptor [13]): 1.17 nM
5 | Ac-FG[dW]RF-NH2 (SMILES CC(=O)N[C@@H](Cc1ccccc1)C(=O)NCC(=O)N[C@H](Cc1c[nH]c2ccccc12)C(=O)N[C@@H](CCCNC(=N)N)C(=O)N[C@@H](Cc1ccccc1)C(N)=O, kisspeptin-10 analogue; also called acFG[(D)-W]RF) [206] | – | 68 | 10 | IP competition with 10nM kisspeptin-10: IC50 [206] (human gpr-54 receptor [16]): 10 nM; IC50 (human gpr-54 receptor [17]): 0.0352 pM
6 | Ac-[dF]WLRW-NH2 (SMILES CC(=O)N[C@H](Cc1ccccc1)C(=O)N[C@@H](Cc1c[nH]c2ccccc12)C(=O)N[C@@H](CC(C)C)C(=O)N[C@@H](CCCNC(=N)N)C(=O)N[C@@H](Cc1c[nH]c2ccccc12)C(N)=O, kisspeptin-10 analogue; also called ac[F-(D)]WLRW) [203] | 150000 | 71 | 0.1 | IP competition with 10nM kisspeptin-10: IC50 [203] (human gpr-54 receptor [14]): 0.1 nM; IP dose response, peptide alone: EC50 (unlabelled number beside rising curve; rise only at -5 LogM) [203] (human gpr-54 receptor [14]): 0.000156 M; IC50 (human gpr-54 receptor [18]): 0.000307 nM
7 | Ac-FG[dF]RF-NH2 (SMILES CC(=O)N[C@@H](Cc1ccccc1)C(=O)NCC(=O)N[C@H](Cc1ccccc1)C(=O)N[C@@H](CCCNC(=N)N)C(=O)N[C@@H](Cc1ccccc1)C(N)=O, kisspeptin-10 analogue; also called acFG[(D)-F]RF) [207] | – | 0 | – | IC50 (human gpr-54 receptor [19]): 110 nM
8 | YNWNGFG[dL]RF-NH2 (N-terminus assumed; SMILES CC(C)C[C@@H](NC(=O)CNC(=O)[C@H](Cc1ccccc1)NC(=O)CNC(=O)[C@H](CC(N)=O)NC(=O)[C@H](Cc1c[nH]c2ccccc12)NC(=O)[C@H](CC(N)=O)NC(=O)[C@@H](N)Cc1ccc(O)cc1)C(=O)N[C@@H](CCCNC(=N)N)C(=O)N[C@@H](Cc1ccccc1)C(N)=O, kisspeptin-10 analogue; also called Peptide 209; YNWNGFG[(D)-L]RF) [209] | – | 81 | 100 | IP competition with 10nM kisspeptin-10: IC50 [209] (human gpr-54 receptor [2]): 100 nM; IC50 (human gpr-54 receptor [22]): 0.0157 nM
9 | YNWNG[dF]GLRF-NH2 (N-terminus assumed; SMILES CC(C)C[C@H](NC(=O)CNC(=O)[C@@H](Cc1ccccc1)NC(=O)CNC(=O)[C@H](CC(N)=O)NC(=O)[C@H](Cc1c[nH]c2ccccc12)NC(=O)[C@H](CC(N)=O)NC(=O)[C@@H](N)Cc1ccc(O)cc1)C(=O)N[C@@H](CCCNC(=N)N)C(=O)N[C@@H](Cc1ccccc1)C(N)=O, kisspeptin-10 analogue; also called YNWNG[(D)-F]GLRF) [211] | 2570 | 73 | 1000 | IP competition with 10nM kisspeptin-10: IC50 [211] (human gpr-54 receptor [10]): 1000 nM; IC50 (human gpr-54 receptor [23]): 4320 nM

Further lines, with some results ahead:

Row | IP stimulation (IC50), peptide alone (human gpr-54 receptor [1]) [nM] | Inhibition of IP stimulation by 10nM Agonist: % Inhibition of Max (human gpr-54 receptor [1]) [%] | Inhibition of IP stimulation by 10nM Agonist: IC50 (human gpr-54 receptor [1]) [nM] | Binder | further results
10 | – | 55 | 0.1 | Ac-YN[dW]NGFG[dW]RF-NH2 (SMILES CC(=O)N[C@@H](Cc1ccc(O)cc1)C(=O)N[C@@H](CC(N)=O)C(=O)N[C@H](Cc1c[nH]c2ccccc12)C(=O)N[C@@H](CC(N)=O)C(=O)NCC(=O)N[C@@H](Cc1ccccc1)C(=O)NCC(=O)N[C@H](Cc1c[nH]c2ccccc12)C(=O)N[C@@H](CCCNC(=N)N)C(=O)N[C@@H](Cc1ccccc1)C(N)=O, kisspeptin-10 analogue; also called acYN[(D)-W]NGFG[(D)-W]RF) [231] | IP competition with 10nM kisspeptin-10: IC50 [231] (human gpr-54 receptor [6]): 0.1 nM; IC50 (human gpr-54 receptor [7]): 0.000564 nM
11 | 300000 | 88 | < 0.1 | YNWNG[dW]GLRF-NH2 (N-terminus assumed; SMILES CC(C)C[C@H](NC(=O)CNC(=O)[C@@H](Cc1c[nH]c2ccccc12)NC(=O)CNC(=O)[C@H](CC(N)=O)NC(=O)[C@H](Cc1c[nH]c2ccccc12)NC(=O)[C@H](CC(N)=O)NC(=O)[C@@H](N)Cc1ccc(O)cc1)C(=O)N[C@@H](CCCNC(=N)N)C(=O)N[C@@H](Cc1ccccc1)C(N)=O, kisspeptin-10 analogue; also called YNWNG[(D)-W]GLRF) [212] | IP competition with 10nM kisspeptin-10: IC50 [212] (human gpr-54 receptor [8]): < 0.1 nM; IP dose response, peptide alone: EC50 (unlabelled number beside rising curve; rise only at -5 LogM) [212] (human gpr-54 receptor [8]): 0.000205 M; IC50 (human gpr-54 receptor [9]): 6330 nM
12 | > 100000 | 64 | 10 | Ac-AGLRW-NH2 (kisspeptin-10 analogue; also called acAGLRW) [202] | IP competition with 10nM kisspeptin-10: IC50 [202] (human gpr-54 receptor [14]): 10 nM; IP dose response, peptide alone: EC50 (unlabelled number beside rising curve; rise only at -5 LogM) [202] (human gpr-54 receptor [14]): 0.00109 M; IC50 (human gpr-54 receptor [15]): 0.00032 nM
13 | 150 | 70 | – | Ac-NSFGLRF-NH2 (kisspeptin-10 analogue; also called Peptide 186; acNSFGLRF) [186] | IP competition with 10nM kisspeptin-10: IC50 [186] (human gpr-54 receptor [20]): 0.5 nM; IP dose response, peptide alone: EC50 (unlabelled number beside rising curve) [186] (human gpr-54 receptor [20]): 592 nM; IC50 (human gpr-54 receptor [21]): 1850 nM
